# Reference: patent US20230212272A1 (LONGBIO PHARMA SUZHOU, published 2023)
# Columns and labels:
# [1] = target: T1, C5 of normal human serum (NHS) (human, UniProt P01031 19-1676); assay: cell-based or functional assay
# [2] = target: T1, C5 of normal human serum (NHS); assay: cell-based or functional assay; remark: listed apart in the source
# human C5 antigen [3] = target: T2, human C5 antigen (human, UniProt P01031 19-673; P01031 678-1676); assay: BLI (ForteBio Octet)
# T2 construct: The later ELISAs detect it with an anti-histidine antibody, so it carries a His tag; also called complement component 5
# human C5 antigen [4] = target: T2, human C5 antigen; assay: ELISA, antibody coated, human C5 titrated; EC50 is the antigen concentration
# Protocol: The wells were blocked with 2.5% skimmed milk dissolved in a phosphate-buffered saline (PBS) for 1 hour, and washed with a PBST solution (a PBS solution containing 20% Tween). Then, 100 μL of the human C5 gradient diluent (the C5 was diluted to 1 ug/ml, followed by 3 X dilution to give 7 gradients, with 100 μL/well) was added into each well, and incubated at room temperature for 1 hr.
# EC₅₀ can be used to evaluate the concentration of antigen at the 50% binding capacity of various antibodies to the antigen.
Binder,"IC50 (ng/ml), inhibition of classical pathway hemolysis of sheep red blood cells by 1% NHS [1] [ng/mL]","IC50 (ng/ml), classical pathway (CP) hemolysis inhibition [2] [ng/mL]","IC90 (ng/ml), classical pathway (CP) hemolysis inhibition [2] [ng/mL]",Kd (human C5 antigen [3]) [nM],koff (human C5 antigen [3]) [s⁻¹],kon (human C5 antigen [3]) [M⁻¹ s⁻¹],EC50 (human C5 antigen [4]) [µg/mL]
"Eculizumab (antibody, human IgG2, kappa, V domains shown) VH: QVQLVQSGAEVKKPGASVKVSCKASGYIFSNYWIQWVRQAPGQGLEWMGEILPGSGSTEYTENFKDRVTMTRDTSTSTVYMELSSLRSEDTAVYYCARYFFGSSPNWYFDVWGQGTLVTVSS VL: DIQMTQSPSSLSASVGDRVTITCGASENIYGALNWYQQKPGKAPKLLIYGATNLADGVPSRFSGSGSGTDFTLTISSLQPEDFATYYCQNVLNTPLTFGQGTKVEIKR",401,559,1340,–,–,–,–
"humanized antibody 16H46L39am (antibody, human IgG1, kappa, L234A L235A, V domains shown) VH: QVQLVQSGAEVKKPGASVKVSCKASGYTFTNYGMNWVRQAPGQGLEWMGWINTYTGEPTYADDFKGRFTFTLDTSTSTAYLELSSLRSEDTAVYYCARTKVPLYFAYAMDYWGQGTLVTVSS VL: DIQLTQSPSSLSASVGDRVTITCKASQSVDYEGDSYLNWYQQKPGKAPKLLIYAASNLESGIPSRFSGSGSGTDFTLTISSLQPEDFATYYCQQSNEDPSTFGGGTKVEIKR",–,330,507,0.369,7.86e-05,213000,0.169
"humanized antibody 16H1L2m (antibody, human IgG1, kappa, L234A L235A, V domains shown) VH: QVQLVQSGSELKKPGASVKVSCKASGYTFTNYGMNWVRQAPGQGLEWMGWINTYTGEPTYADDFKGRFVFSLDTSVSMAYLQISSLKAEDTAVYYCARTKVPLYFAYAMDYWGQGTLVTVSS VL: DIVLTQSPSSLAVSLGERATINCKASQSVDYEGDSYLNWYQQKPGQPPKLLIYAASNLESGIPDRFSGSGSGTDFTLTISSLQAEDVAVYYCQQSNEDPSTFGGGTKVEIKR",–,347,511,0.359,7.81e-05,217000,0.117
"chimeric antibody CHI-16 (antibody, human IgG1, kappa, L234A L235A, V domains shown) VH: QIQLVQSGPELKKPGETVKISCKASGYTFTNYGMNWVKQAPGKGLKWMGWINTYTGEPTYADDFKGRFAFSLETSASTAYLQINNLKNEDTATYFCTRTKVPLYFAYAMDYWGQGTSVTVSS VL: not shown",204,302,500,–,–,–,–
